For series [1], the system named is O=P(O)(O)OC[C@@H](O)[C@H]1O[C@@H](OP(=O)(O)O)[C@@H](O)[C@@H](O)[C@@H]1O. Kind of series: purified protein. Conditions: 20 mM HEPES pH 8.0, 10 mM MgCl2, 10 mM KCl, 25 °C, 30 min.
Text: (§1) malachite green phosphate release assay, Michaelis-Menten fit on HP0860 protein (H. pylori GmhB)
Series [2] relates to O=P(O)(O)OC[C@@H](O)[C@H]1O[C@H](OP(=O)(O)O)[C@@H](O)[C@@H](O)[C@@H]1O. As to the kind of experiment: purified protein. Conditions: 20 mM HEPES pH 8.0, 10 mM MgCl2, 10 mM KCl, 25 °C, 30 min.
Text: as §1

For the substance “HP0860 protein (H. pylori GmhB) (Helicobacter pylori 26695)”, in series [1], the Km came to 210 ± 50 µM, the kcat amounted to 2.18 ± 0.17 s⁻¹ and the kcat/Km stood at 10400 M⁻¹ s⁻¹. In series [2], the Km is 300 ± 80 µM, the kcat was found to be 1.07 ± 0.1 s⁻¹ and the catalytic efficiency (kcat/Km) worked out at 3570 M⁻¹ s⁻¹.

The Km is the substrate concentration at which the rate is half of its maximum. By kcat is commonly meant the number of substrate molecules converted per active site and unit of time at saturation. One may read the kcat/Km as the turnover number divided by the Michaelis constant.

The record behind these values is paper PMC8204981, “Helicobacter pylori GmhB enzyme involved in ADP-heptose biosynthesis pathway is essential for lipopolysaccharide biosynthesis and bacterial virulence” (Virulence, 2021).
